Measurements: the RNAGym collection of RNA variant scans (doi:10.1073/pnas.2313332121)

B1: TPR t1 (parent)
chain: GACCAAUCUGCCCUCAGAGCUCGAGAACAUCUUCGGAUGCAGAGGAGGCAGGCUUCGGUGGCGCGAUAGCGCCAACGUCCUCAACCUCCAAUGCAUCCCACCACAUGAUGAUGCCUGAAGAGCCUUGGUUUUUUG

Variants of: B1
Experiment: polymerase ribozyme fitness, log enrichment relative to wild type (log ratio); higher = more active; in vitro selection for triplet polymerase activity
Procedure, shortened: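 Input and output libraries were sequenced on Illumina after a single in vitro selection round, run in triplicate on PCR-built, transcribed mutant libraries of each subunit of a heterodimeric triplet polymerase ribozyme. Selection annealed libraries to a biotinylated primer, the partner subunit and triplets, incubated them frozen at −7 °C, then gel-excised extended constructs for streptavidin-bead capture and RT-PCR. Genotypes with ≥10 input reads and ≥1 read per output were kept. Fitness is the logarithm, taken in base 2, of genotype enrichment divided by wild-type enrichment, using inverse-variance-weighted replicate averages.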

Variant | polymerase ribozyme fitness (log ratio)
GACCAAUCUGCCCUCAGAGCUCGAGAACAUCUUCGGAUGCAGAGGAGGCAGGCUUCGGUGGCGCGAUAUCGCCAACGUCCUCAACCUCCAAUGCAUCCCACCACAUGAUCAUGCCUGAAGAGCCUUGGUUUUUUG [G69U G110C] | -2.61
GACCAAUCUGCCCUCAGAGCUCGAGAACAUCUUCGGAUGCAGAGGAGGCAGGCUUCGGGGGCGCGAUAGCGCCAACGUCCUCCACCUCCAAUGCAUUCCACCACAUGAUGAUGCCUGAAGAGCCUUGGUUUUUUG [U59G A83C C97U] | -0.481
GACCAAUCUGCCCUCAGAGCUCGAGAACAUCUUCGGAUGCAGAGGCGGCAGGCUUCGGUGGCGCGAUAGCGCCAACGUCCUCAACCUCCAAUUCAUCCCACCACAAGAUGAUGCCUGAAGAGCCUUGGUUUUUUG [A46C G93U U106A] | -1.93
GACCAAUGUGCCCUCAGAGCUCGAGAACAUCUUCGGAUGCAGACGAGGCAGGCUUCGGUGGCGCGAUAGCGCCAACGUCCUCACCCUCCAAUGCAUCCCACCACAUGAUGAUGCUUGAAGAGCCUUGGUUUUUUG [C8G G44C A84C C115U] | -1.3
GACCAAUCUGCCCUCAGAGCUCGAGAACAUCUUCGGAUGCAGAGGAGGCAGGCUUCGGUGGCGCGAUAGCGCCAACGUCCUCAUCCUCCUAUGCAUCCCACCACAUGAUGAUGCCUGAAGAGCCUUGGUUUUUUG [A84U A90U] | -1.49
GACCAAUGUGCCCUCAGAGCACGAGAACAUCUUCGGAUGCAGAGGAGGCAGGCCUCGGUGGCGCGAUAGCGACAACGUCCUCAACCUCCAAUGCAUCCCACCACAUGAUGAUGCCUGAAGAGCCUUGGUUUUUUG [C8G U21A U54C C72A] | 0.0731
GACCAAUCUGCCUUCAGAGCUCGAGAACAUCUUCGGAUGCAGAGGAGUCAGGCUUCGGUGGCGCGAUAGCGCUAACGUCCUCAACCUCCAAUGCAUCCCACCACAUGAUGAUGCCUGAAGAGCCUUGGUGUUUUG [C13U G48U C73U U130G] | -0.119
GACCAAUCUGCCCUCAGAGCUCGAGAACAUCUUCGGAUGCAGAGGAGGCAGGCUUCGGUGGCGCGAUAGCGGCAACGUCCUCAACCUCCAAUGCAUCCCACCACAUGAUGAUGCCUGAAGAGCCUUGGUGUUUUG [C72G U130G] | -1.24
GACCAAUCUGCACUCAGAACUGGAGACCAACUUCGGAUGAAGAGGCGGCAGGCUUAGGUGGCGCGAUAGCGCCAACGUCCUAAACCUCCAAGGCAUCCCACCACAUGAGGAUGCCUGAAGAGCCUUGGUUUUUUG [C12A G19A C22G A27C U30A C40A A46C C56A C82A U92G U109G] | -8.5
GACCAAUCUGCCCUCAGAGCUCGAGAACAUCUUCGGAUGCAGAGGAGGCCGGCUUCGGUGGCGCGAUAGCGACAACGUCCUCAACCUCCAAUGCAUCCCACCACAUGAUGAUGCCUGAAGAGCUUUGGUAUUUUG [A50C C72A C124U U130A] | 0.593
GACCAAUCUGCCCUCAGAGCUCGAGAACAUCUUCGGAUGCAGAGGAGACAGGCUUCGGUGGCGCGAUAGCGCCAACGUCCUCAAUCUCCAAUGCAUCCCACCACUUGAUGAUGCCUGAAGAGCCUUGGUUUUUUG [G48A C85U A105U] | -2.08
GACCAAUCUGCGCUCAGAGCUCGAGAACAUCUUCGGAUGCAGAGGAGGCAGGCUUCGGUGGCGCGAUAGCGCCAACGUCCUCAACCUCCAAUGCAUCCCACCACAUGAUGAUACCUGAAGAGCCUUGGUUUUUUG [C12G G113A] | -0.4
GACAAAUCUGCCCUCAGAGCUCGAGAACAUCUUCGGUUGCAGAGGAGGCAGGCUUCGGUGGCGCGAUAGCGUCAACGACCUCAACCUCCAAUGCAUCCCACCACAUGAUGAUGCCUGAAGAGCCUUGGUUUUUUG [C4A A37U C72U U78A] | -1.52
GACCAAUCUGCCCUCAGAGCUCGAGAACAUCUUCGGAUGCAGACGAGGCAGGCUUCGGUGGCGCGAUAGCGCCAACGUCCUCAUCCUCCAAUGCAUCCCACCACAUGAUGAUGCCUGAAGAGCCUUGGUUUUUUG [G44C A84U] | -1.11
GACCAAUCUGCCCUCAGAGCUCGAGAACAUCUUCGGAUGCAGAGUAGGCAGGCUUCGGGGGCGCGAUAGCGCCAACGUCCUCGACCUCCAAUGCAUCCCACCACAUGAUGAUGCUUGAAGAGCCUUGGUUUUUUG [G45U U59G A83G C115U] | -5.27
GACCAAUCUGCCCUCAGAGCUCGAGAACAUCUUCGGAUGCAGAGGAGGCCGGCUUCGGUGGCGCGAUAGCGGCAACGUCCUCAACCUCCAAUGCAUCCCACCACAUGAUGAUGCCUGAAGAGCCUUAGUUUUUUG [A50C C72G G127A] | -2.8
GACCAAUCUGCCCUCAGAGCUCGAGAACAUCUUCGGAUGCAGAGGAGGCAGGCUUCGGUGGCGCGAUAGCGCCAACGUCCUCAACCUCCAAUGCAUCCCACCACAUUAUGAUGUCUGAAGAGCCUUGGUUUUUUG [G107U C114U] | -3.8
GACCAAUCUGCCCUCAGAGCUCGAGAACAUCUUCGGAUGCAGAGGAGGCACGCUUCGGUGGCGCGAUAGCGCCAACGUCGUCAACCUCCAAUGCAUCCCACCACAUGAUGAUGCCUGAAGAGCCUUGGUUUUUUU [G51C C80G G135U] | -1.27
GACCAAUCGGCCCUCAGAGCUCGAGAACAUCUUCGGAUGCAGAGGAGGCAGGCAUCGGUGGCGCGAUAGCGCCAACGUCCUCAACCUCCAAUGCAUGCCACCACAUGAUGAUGCCUGAAGAGCCUUGGUUCUUUG [U9G U54A C97G U131C] | -4.7
GACCAAUCUGCCCUCAGAGCUCGAGAACAUCUUCGGAUGCAGAGGAGGCAGGCUGGGGUGGCGCGAUAGCGCCAACGUCCUCAACCUCCAAUGCAUCCCACCACAUGAUGAUGCCUGAAGAGCCUUGGUUUUUUG [U55G C56G] | -1.53
GACCAAGCUGCCCUCAGAGCUCGAGAACAUCUUCGGAUGCAGAGGAAGCAGGCUUAGGUGGCGCGAUAGGGCCAACGUCCUCAACCUCCAAUGCAUCCCACCACAUGAUGAUGCCUGAAGAGCCUUGGUUUUUUG [U7G G47A C56A C70G] | -5.1
